Laboratory results: the supplement of paper PMC7877785
± gives the uncertainty stated by the source.

Assay: self-splicing fitness, log relative to wild type (ln ratio); higher = more splicing; Tetrahymena group I intron in knt gene, E. coli kanamycin selection, DiMSum; sequences stand for … in CUCUCU…GGAGGGAAAAGUUAUCAGGCAUGCACCUGGUAGCUAGUCUUUAAACCAAUAGAUUGCAUCGGUUUAAAAGGCAAGACCGUCAAAUUGCGGGAAAGGGGUCAACAGCCGUUCAGUACCAAGUCUCAGGGGAAACUUUGAGAUGGCCUUGCAAAGGGUAUGGUAAUAAGCUGACGGACAUGGUCCUAACCACGCAGCCAAGUCCUAAGUCAACAGAUCUUCUGUUGAUAUGGAUGCAGUUCACAGACUAAAUGUCGGUCGGGGAAGAUGUAUUCUUCUCAUAAGAUAUAGUCGGACCUCUCCUUAAUGGGAGCUAGCGGAUGAAGUGAUGCAACACUGGAGCCGCUGGGAACUAAUUUGUAUGCGAAAGUAUAUUGAUUAGUUUUGGAGUACUCGUGGUCG
Method in brief: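 Pooled colonies went to amplicon sequencing on an Illumina HiSeq 2500 after six replicate transformations. The plates were LB agar with 100 μg/mL carbenicillin, 50 μM IPTG and 0.2% rhamnose, with or without 25 μg/mL kanamycin, incubated overnight at 37°C or 30°C. The E. coli BL21(DE3) library had all eight P1ex-region intron nucleotides randomised, the intron placed in the knt kanamycin-resistance gene on pET-22b(+). DiMSum fitness is the error-weighted combination of replicate fold changes, kanamycin against none, normalised to wild type.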

| Sequence | self-splicing fitness (ln) (30 °C) | self-splicing fitness (ln) (37 °C) |
| --- | --- | --- |
| GGGAAGCAAUAUUACGUUGC | -3.92 ± 0.42 |  |
| GGGCAGCAAUAUUACGACUU | 0.0195 ± 0.16 | -0.0822 ± 0.19 |
| GGGCAGCAAUAUUACGAUUU | -0.054 ± 0.053 | -0.281 ± 0.065 |
| GGGCAGCAAUAUUACGCCAU | -1.69 ± 0.12 | -1.21 ± 0.13 |
| GGGCAGCAAUAUUACGCGAU | -2.41 ± 0.39 | -1.8 ± 0.28 |
| GGGCAGCAAUAUUACGCUGA | -1.25 ± 0.12 | -0.998 ± 0.15 |
| GGGCAGCAAUAUUACGCUUC |  | -1.85 ± 0.17 |
| GGGCAGCAAUAUUACGGACA | -1.97 ± 0.38 | -0.246 ± 0.39 |
| GGGCAGCAAUAUUACGGACC | -0.717 ± 0.25 | 0.0103 ± 0.36 |
| GGGCAGCAAUAUUACGGAGU | -2.8 ± 0.12 | -1.78 ± 0.11 |
| GGGCAGCAAUAUUACGGCAG | -2.41 ± 0.13 | -0.994 ± 0.14 |
| GGGCAGCAAUAUUACGGCCG | -1.5 ± 0.16 | -1.59 ± 0.26 |
| GGGCAGCAAUAUUACGGGCC | -2.96 ± 0.2 | -2.66 ± 0.31 |
| GGGCAGCAAUAUUACGGUAG | -3.2 ± 0.19 | -1.34 ± 0.19 |
| GGGCAGCAAUAUUACGGUAU | -1.06 ± 0.081 | -0.373 ± 0.13 |
| GGGCAGCAAUAUUACGUACU | -0.53 ± 0.098 | -0.834 ± 0.11 |
| GGGCAGCAAUAUUACGUAGC | -1.79 ± 0.22 | -0.913 ± 0.28 |
| GGGCAGCAAUAUUACGUAGG | -2.38 ± 0.075 | -1.32 ± 0.091 |
| GGGCAGCAAUAUUACGUCAG | -1.19 ± 0.087 | -0.138 ± 0.11 |
| GGGCAGCAAUAUUACGUCCU |  | -3.02 ± 0.32 |
| GGGCAGCAAUAUUACGUCUA | 0.309 ± 0.1 | -1.04 ± 0.1 |
| GGGCAGCAAUAUUACGUGGG | -3.1 ± 0.12 | -2.62 ± 0.13 |
| GGGGAGCAAUAUUACGAAGU | -2.04 ± 0.34 |  |
| GGGGAGCAAUAUUACGACAC | -0.721 ± 0.14 | -0.843 ± 0.24 |
| GGGGAGCAAUAUUACGACGG | -3.76 ± 0.46 |  |

| Sequence | self-splicing fitness (ln) (30 °C) | self-splicing fitness (ln) (37 °C) |
| --- | --- | --- |
| GGGGAGCAAUAUUACGACGU | -0.89 ± 0.12 | -0.094 ± 0.15 |
| GGGGAGCAAUAUUACGAUUG | -2.02 ± 0.45 | -1.67 ± 0.45 |
| GGGGAGCAAUAUUACGCAUA | -3.29 ± 0.48 | -2.28 ± 0.32 |
| GGGGAGCAAUAUUACGCGUG | -1.75 ± 0.13 | -1.96 ± 0.17 |
| GGGGAGCAAUAUUACGGGCC |  | -1.4 ± 0.28 |
| GGGGAGCAAUAUUACGGGUG | -3.57 ± 0.23 | -2.9 ± 0.43 |
| GGGGAGCAAUAUUACGGUCU | -3.73 ± 0.4 | -0.856 ± 0.31 |
| GGGGAGCAAUAUUACGGUUG | -3.25 ± 0.21 | -2.18 ± 0.22 |
| GGGGAGCAAUAUUACGGUUU | -1.27 ± 0.24 | -0.456 ± 0.29 |
| GGGGAGCAAUAUUACGUAUG |  | -1.58 ± 0.31 |
| GGGGAGCAAUAUUACGUCGC |  | -0.104 ± 0.44 |
| GGGGAGCAAUAUUACGUGAU | -2.84 ± 0.25 | -1.8 ± 0.26 |
| GGGGAGCAAUAUUACGUUUC | -2.65 ± 0.2 | -2.64 ± 0.29 |
| GGGUAGCAAUAUUACGACCA | -0.444 ± 0.23 | -0.732 ± 0.42 |
| GGGUAGCAAUAUUACGACGA | -0.202 ± 0.15 | -0.379 ± 0.14 |
| GGGUAGCAAUAUUACGAUAG | -2.32 ± 0.37 |  |
| GGGUAGCAAUAUUACGAUAU | -0.506 ± 0.11 | -0.0772 ± 0.12 |
| GGGUAGCAAUAUUACGAUUC | -0.648 ± 0.12 | 0.268 ± 0.19 |
| GGGUAGCAAUAUUACGCAAG | -1.59 ± 0.11 | -0.847 ± 0.16 |
| GGGUAGCAAUAUUACGCACA | -0.833 ± 0.2 | 0.402 ± 0.22 |
| GGGUAGCAAUAUUACGCGAC | -2.34 ± 0.2 | -1.62 ± 0.23 |
| GGGUAGCAAUAUUACGCGAU | -3.42 ± 0.26 | -1.93 ± 0.23 |
| GGGUAGCAAUAUUACGCUAC | -1.81 ± 0.34 |  |
| GGGUAGCAAUAUUACGCUGG | -2.61 ± 0.35 | -2.45 ± 0.42 |
| GGGUAGCAAUAUUACGCUGU | -3.54 ± 0.38 | -2.32 ± 0.29 |

| Sequence | self-splicing fitness (ln) (30 °C) | self-splicing fitness (ln) (37 °C) |
| --- | --- | --- |
| GGGUAGCAAUAUUACGGAGG |  | -0.988 ± 0.29 |
| GGGUAGCAAUAUUACGGGUC | -2.32 ± 0.17 | -1.1 ± 0.18 |
| GGGUAGCAAUAUUACGGUCC | -1.34 ± 0.25 |  |
| GGGUAGCAAUAUUACGUCGA | -0.508 ± 0.14 | -0.243 ± 0.15 |
| GGGUAGCAAUAUUACGUCGG | -3.8 ± 0.2 | -1.68 ± 0.17 |
| GGGUAGCAAUAUUACGUGAG | -0.474 ± 0.074 | 0.074 ± 0.11 |
| GGGUAGCAAUAUUACGUUUU | -1.31 ± 0.063 | -0.826 ± 0.1 |
| GGUAAGCAAUAUUACGAAAU | -1.94 ± 0.34 | -0.431 ± 0.32 |
| GGUAAGCAAUAUUACGACUC | 0.295 ± 0.12 | -0.605 ± 0.18 |
| GGUAAGCAAUAUUACGAGAG | -3.7 ± 0.4 | -3.25 ± 0.25 |
| GGUAAGCAAUAUUACGCAAU | -1.38 ± 0.11 | -1.44 ± 0.14 |
| GGUAAGCAAUAUUACGCCCA | -1.68 ± 0.23 | -1.01 ± 0.27 |
| GGUAAGCAAUAUUACGCCUG |  | -1.53 ± 0.33 |
| GGUAAGCAAUAUUACGCGAG | -2.95 ± 0.15 | -0.704 ± 0.09 |
| GGUAAGCAAUAUUACGCGCG | -0.623 ± 0.1 | 0.012 ± 0.14 |
| GGUAAGCAAUAUUACGCGUG | -2.42 ± 0.18 | -0.242 ± 0.15 |
| GGUAAGCAAUAUUACGCUGA | -2.82 ± 0.28 | -0.411 ± 0.22 |
| GGUAAGCAAUAUUACGCUUG | -3.34 ± 0.38 | -1.7 ± 0.34 |
| GGUAAGCAAUAUUACGGCUG | -0.805 ± 0.14 | 0.356 ± 0.15 |
| GGUAAGCAAUAUUACGGGGA |  | -2.42 ± 0.33 |
| GGUAAGCAAUAUUACGGGUU | -1.82 ± 0.076 | -1.69 ± 0.11 |
| GGUAAGCAAUAUUACGGUGC | -1.14 ± 0.15 | -0.983 ± 0.26 |
| GGUAAGCAAUAUUACGGUGU | -1.81 ± 0.1 | -0.484 ± 0.11 |
| GGUAAGCAAUAUUACGGUUU | -0.707 ± 0.056 | -0.0713 ± 0.083 |
| GGUAAGCAAUAUUACGUAGU | -1.48 ± 0.11 | -1.46 ± 0.17 |

| Sequence | self-splicing fitness (ln) (30 °C) | self-splicing fitness (ln) (37 °C) |
| --- | --- | --- |
| GGUAAGCAAUAUUACGUGGU | -1.33 ± 0.29 | -2.48 ± 0.21 |
| GGUAAGCAAUAUUACGUGUC | -2.08 ± 0.23 | -0.504 ± 0.3 |
| GGUCAGCAAUAUUACGACAG | -0.391 ± 0.11 | 0.151 ± 0.13 |
| GGUCAGCAAUAUUACGACCU | -3.06 ± 0.3 | -2.07 ± 0.32 |
| GGUCAGCAAUAUUACGACUG | -0.394 ± 0.15 | -0.586 ± 0.2 |
| GGUCAGCAAUAUUACGAGUC | -1.51 ± 0.09 | -0.893 ± 0.1 |
| GGUCAGCAAUAUUACGAGUU | -1.38 ± 0.068 | -0.17 ± 0.071 |
| GGUCAGCAAUAUUACGAUAA | 0.11 ± 0.092 | 0.447 ± 0.15 |
| GGUCAGCAAUAUUACGAUCA | -0.0175 ± 0.14 | 0.178 ± 0.13 |
| GGUCAGCAAUAUUACGAUGG | -1.34 ± 0.076 | -0.299 ± 0.1 |
| GGUCAGCAAUAUUACGAUUA | -0.0947 ± 0.092 | -0.0575 ± 0.092 |
| GGUCAGCAAUAUUACGCAGC | -1.76 ± 0.14 | -0.838 ± 0.13 |
| GGUCAGCAAUAUUACGCCUU | -0.559 ± 0.051 | 0.122 ± 0.069 |
| GGUCAGCAAUAUUACGCUUU | 0.129 ± 0.071 | -0.0673 ± 0.092 |
| GGUCAGCAAUAUUACGGGCG | -0.483 ± 0.088 | 0.32 ± 0.12 |
| GGUCAGCAAUAUUACGGUUA | -0.399 ± 0.081 | 0.53 ± 0.076 |
| GGUCAGCAAUAUUACGUCCA | -1.63 ± 0.11 | -1.02 ± 0.1 |
| GGUCAGCAAUAUUACGUGCG | 0.397 ± 0.12 | -0.078 ± 0.13 |
| GGUCAGCAAUAUUACGUGGA | -1.82 ± 0.14 | -1.58 ± 0.14 |
| GGUCAGCAAUAUUACGUUAC | -1.25 ± 0.061 | -0.483 ± 0.08 |
| GGUCAGCAAUAUUACGUUUG | -2.61 ± 0.11 | -2.38 ± 0.15 |
| GGUGAGCAAUAUUACGAAGG |  | -2.87 ± 0.4 |
| GGUGAGCAAUAUUACGAAUU | -1.69 ± 0.36 | -0.274 ± 0.38 |
| GGUGAGCAAUAUUACGACAG | -3.05 ± 0.41 |  |
| GGUGAGCAAUAUUACGAGUA | -1.41 ± 0.21 | -1.69 ± 0.29 |
